# According to IntAct's records for PubMed 24302889:
# B1: Retinoblastoma-related protein 1 (Arabidopsis thaliana (Mouse-ear cress)), Q9LKZ3 (parent)
# chain: MEEVQPPVTPPIEPNGKRSEASLLDICEKVLSLDGSTCDEALKLFTETKRILSASMSNIGSGTREEVERFWFAFILYSVKRLSVRKEADGLSVSGDNEFNLCQILRALKLNIVDFFKELPQFVVKAGSVLGELYGADWENRLQAKEVQANFVHLSLLSKYYKRGFREFFLTYDANAEKNSANSSTYLLDSYRFGWLLFLALRNHAFSRFKDLVTCSNGVVSILAILIIHVPCRFRNFSIQDSSRFVKKGDKGVDLVASLCKIYDASEDELRIVIDKANNLVETILKKKPSPASECQTDKLDNIDPDGLTYFEDLLEETSISTSLITLEKDYYDGKGELDERVFINEEDSLLGSGSLSAGAVNITGVKRKIDALSSPARTFISPLSPHKSPAAKTNGISGATKLAATPVSTAMTTAKWLRTVISPLLPKPSPGLEHFLKSCDRDITNDVTRRAHIILEAIFPNSSLGAQCGGGSLQAVDLMDDIWAEQRRLEACKLYYRVLEAMCKAEAQILHANNLNSLLTNERFHRCMLACSAELVLATHKTITMLFPAVLERTGITAFDLSKVIESFIRHEDSLPRELRRHLNSLEERLLESMVWEKGSSMYNSLIVARPSLALEINQLGLLAEPMPSLDAIAALINFSDGANHASSVQKHETCPGQNGGIRSPKRLCTDYRSILVERNSFTSPVKDRLLALGNVKSKMLPPPLQSAFASPTRPNPGGGGETCAETGINIFFTKINKLAAVRINGMVERLQLSQQIRESVYCFFQHVLAQRTSLLFSRHIDQIILCCFYGVAKISQMSLTFREIIYNYRKQPQCKPLVFRSVYVDALQCRRQGRIGPDHVDIITFYNEIFIPAVKPLLVELGPVRNDRAVEANNKPEGQCPGSPKVSVFPSVPDMSPKKVSAVHNVYVSPLRGSKMDALISHSTKSYYACVGESTHAYQSPSKDLSAINNRLNNSSSNRKRTLNFDAEAGMVSDSMVANSLNLQNQNQNQNGSDASSSGGAAPLKTEPTDS
# partner: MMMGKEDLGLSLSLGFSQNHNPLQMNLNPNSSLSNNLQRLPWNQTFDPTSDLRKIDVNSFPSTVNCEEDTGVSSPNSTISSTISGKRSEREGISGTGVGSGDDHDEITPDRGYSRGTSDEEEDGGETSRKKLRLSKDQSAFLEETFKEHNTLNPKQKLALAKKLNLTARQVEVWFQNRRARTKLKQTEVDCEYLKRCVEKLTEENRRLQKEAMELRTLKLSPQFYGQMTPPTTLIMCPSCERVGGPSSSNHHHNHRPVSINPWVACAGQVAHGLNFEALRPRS
# Variants of: B1
# Conditions: with hat2_arath HAT2, P46601
row,Variant,effect of a mutation on the interaction
1,N849F,disrupting interaction strength
